How the values were obtained:
[1] = test system: influenza virus A/PR/8/34; settings: 100 μl of one mg/ml solution in allantoic cavity three hours before virus; average of five eggs
HIV (HTLV-IIIB) = assay: Inhibitory activity against HIV infection and proliferation in MT-4 cells (indirect fluorescence antibody method); type: cell-based, human immunodeficiency virus (HIV); settings: three days, positive control 26.0%
Method: (Method) Cultured supernatant of MOLT-4/HTLV-IIIB cells, a HTLV-IIIB persistent infected strain of HIV, was used as a viral solution. The supernatant was kept at -80° C. Human T cell line MT-4 was used for the test. MT-4 was subcultured in RPMI 1640 medium containing 10% fetal calf serum (FCS). Sample, LF derived peptide, was dissolved in RPMI 1640 medium and one ml of the diluted solution at various concentrations was added to the cells. The inoculated MT-4 test sample was incubated for 60 minutes and infected with HIV at a concentration of moi […]=0.01 and one ml of the cell solution adjusted at a cell density of 3×10^5 cells/ml was added. The cells were cultured for three days : and HIV infected cells were determined with an indirect fluorescence antibody method.
HIV infected cells were determined by the indirect fluorescence antibody method using HIV infected patient serum as a primary antibody. […] HIV infected MT-4 cells cultured without addition of the sample was used as a positive control and cells without addition of viral solution was cultured to make a negative control group.

[2] = test system: Human CMV (Tanaka strain); assay: Inhibitory activity against human CMV infection and proliferation in HELF cells (fluorescence staining); type: cell-based, Human cytomegalo virus; settings: 24 hrs., concentration not given
Method: (Method) LF derived peptide was dissolved in 2% serum added MEM medium to give five mg/ml solution, filtered and sterilized to make a stock solution. The stock solution was diluted with 2% serum added MEM medium on use. Samples containing human embryo lung fibroblast cells (HELF cells) were suspended in 2% serum added MEM medium and incubated for 10 minutes. The cells were collected by centrifugation, washed twice with 2% serum added MEM medium and suspended in 2% serum added MEM medium. Human cytomegalo virus [Human CMV (Tanaka strain)] was added, incubated for 24 hrs., fluorescence stained with human CMV positive serum and the adsorption rate of human CMV to the cells was determined.
The results are judged from the numbers of fluorescent stained cells per one cover slip.

B1: Human LF: human lactoferrin, an iron-binding protein secreted in milk (protein, UniProt P02788 20-710, looked up)
Lactotransferrin: GRRRSVQWCAVSQPEATKCFQWQRNMRKVRGPPVSCIKRDSPIQCIQAIAENRADAVTLDGGFIYEAGLAPYKLRPVAAEVYGTERQPRTHYYAVAVVKKGGSFQLNELQGLKSCHTGLRRTAGWNVPIGTLRPFLNWTGPPEPIEAAVARFFSASCVPGADKGQFPNLCRLCAGTGENKCAFSSQEPYFSYSGAFKCLRDGAGDVAFIRESTVFEDLSDEAERDEYELLCPDNTRKPVDKFKDCHLARVPSHAVVARSVNGKEDAIWNLLRQAQEKFGKDKSPKFQLFGSPSGQKDLLFKDSAIGFSRVPPRIDSGLYLGSGYFTAIQNLRKSEEEVAARRARVVWCAVGEQELRKCNQWSGLSEGSVTCSSASTTEDCIALVLKGEADAMSLDGGYVYTAGKCGLVPVLAENYKSQQSSDPDPNCVDRPVEGYLAVAVVRRSDTSLTWNSVKGKKSCHTAVDRTAGWNIPMGLLFNQTGSCKFDEYFSQSCAPGSDPRSNLCALCIGDEQGENKCVPNSNERYYGYTGAFRCLAENAGDVAFVKDVTVLQNTDGNNNEAWAKDLKLADFALLCLDGKRKPVTEARSCHLAMAPNHAVVSRMDKVERLKQVLLHQQAKFGRNGSDCPDKFCLFQSETKNLLFNDNTECLARLHGKTTYEKYLGPQYVAGITNLKKCSTSPLLEACEFLRK
[1]
  Inhibitory rate of infection and proliferation of influenza virus: 87.5%
HIV (HTLV-IIIB); sample 63 μg/ml
  ratio of stained (HIV infected) cells: 17%
HIV (HTLV-IIIB); sample 125 μg/ml
  ratio of stained (HIV infected) cells: 8.6%
HIV (HTLV-IIIB); sample 250 μg/ml
  ratio of stained (HIV infected) cells: 7.3%
HIV (HTLV-IIIB); sample 500 μg/ml
  ratio of stained (HIV infected) cells: 5.8%
HIV (HTLV-IIIB); sample 1,000 μg/ml
  ratio of stained (HIV infected) cells: 3.1%
[2]
  Inhibitory rate of human CMV infection: 94.8%

From patent US5565425A, “Viral infection and proliferation inhibitors” (Snow Brand Milk Products Co., Ltd, priority 1993, dated 1996)
